# Read-outs that look alike come from different tables or passages of the source. Starred links: 1 amine or outer side, 2 acyl side, 3 side chain; linkers in the order of their positions; H or OH if unused. Positions of bridges follow the written chain, without caps; N, C: chain ends. Non-standard residues stand in square brackets, D forms with d. Primed or numbered codes have the meaning given here. No end group written: not given here. *: point of attachment. azidopropyl = N-terminal modification AzPro, [N-]=[N+]=NCCC*; TATB = O=C(C[*:1])N1CN(C(=O)C[*:2])CN(C(=O)C[*:3])C1; oligonucleotide 1590463 = not defined here; Lys(N3) = [N-]=[N+]=NCCCC[C@H](N)C(=O)O; Hyp = O=C(O)[C@@H]1C[C@@H](O)CN1; azidopropyl″ = [N-]=[N+]=NCCC*
# How the values were obtained:
# [1] = molecular target: T1, hCD71-Nluc fusion protein (human, UniProt P02786 1-760); assay: nanoBRET competition, tracer BCY17871-1598988 60 nM, HEK293 hCD71-Nluc membranes
# T1 construct: whole, on cells; Used as crude membrane fractions of HEK293 cells stably expressing hCD71-Nluc; also called human transferrin receptor, CD71, fused to NanoLuc; not shown: NanoLuc (ProMega) luciferase joined through its N-terminal Val
# [2] = molecular target: T1, hCD71-Nluc fusion protein; assay: as above; remark: listed apart in the source
# Protocol: (§1) The mixtures were incubated for 3 hours at room temperature to reach equilibrium. To initiate BRET, 12.4 μL of 100 μM of the Nluc substrate furimazine was added to each well, and the mixtures were incubated for 5-30 minutes. The assay plate was read on a Promega GlowMax Discover plate reader at wavelengths of 450 nm and 600 nm, and the ratio of emissions at wavelengths 450/600 were used to yield % BRET efficiency. Data was subjected to non-linear regression, then fitted to a single site binding hyperbolic function.
# (§2) In order to evaluate modified oligonucleotides conjugated to CD71 bicycle ligands and RNAi compounds conjugated to CD71 bicycle ligands, the assay was modified as follows. […] Modified oligonucleotides were conjugated to the bicycle ligands through a SPAAC reaction These were then added at a range of concentrations in triplicate assays points, and the mixtures were incubated for 3 hours at room temperature. BRET was initiated with the addition of furimazine and the assay was completed as described above.
# [3] = molecular target: T1, hCD71-Nluc fusion protein; assay: as above; remark: listed apart in the source
# Protocol: as §1, §2
# [4] = molecular target: T1, hCD71-Nluc fusion protein; assay: as above; remark: listed apart in the source
# Protocol: as §1, §2
# [5] = molecular target: T1, hCD71-Nluc fusion protein; assay: as above; remark: listed apart in the source
# Protocol: as §1, §2
# CD71 = molecular target: T2, CD71 (Homo sapiens (Human), UniProt P02786 89-760); assay: SPR Biacore X100, conjugate duplexed to biotin-DNA on streptavidin chip, CD71 injected 6.25-100 nM, 1:1 fit
# T2 construct: also called transferrin receptor; TfR1
# Protocol: The binding affinity for each of the following modified oligonucleotides conjugated to CD71 bicycle ligands was tested on a Biacore X100 surface plasmon resonance (SPR) instrument. 200 units of modified oligonucleotides conjugated to CD71 bicycle ligand were immobilized on a streptavidin chip by injecting a 20 nM solution of 5′-Biotin-labeled DNA (5′-Biotin-TEG-DNA complement to modified oligonucleotide) duplexed with modified oligonucleotides conjugated to CD71 bicycle ligand in HBS—P (10 mM HEPES, pH 7.4, 150 mM NaCl, 0.0005% Surfactant P20) running buffer. […] Kinetic and equilibrium binding analysis was performed using Biacore X100 Evaluation Software, applying 1:1 binding fit.
# [6] = molecular target: T1, hCD71-Nluc fusion protein; assay: nanoBRET competition, tracer BCY17871-1598988 60 nM, HEK293 hCD71-Nluc membranes; remark: listed apart in the source
# [7] = molecular target: T1, hCD71-Nluc fusion protein; assay: as above; remark: listed apart in the source
# [8] = molecular target: T1, hCD71-Nluc fusion protein; assay: as above; remark: listed apart in the source
# Protocol: as §1, §2
# [9] = molecular target: T1, hCD71-Nluc fusion protein; assay: nanoBRET saturation binding, HEK293 hCD71-Nluc membranes, single site fit
# Protocol: as §1
# [10] = molecular target: T1, hCD71-Nluc fusion protein; assay: nanoBRET competition, tracer BCY17871-1598988 60 nM, HEK293 hCD71-Nluc membranes; remark: listed apart in the source
# Protocol: as §1, §2
# T1 sequence (P02786 other isoform, or with tags, fused parts or gaps): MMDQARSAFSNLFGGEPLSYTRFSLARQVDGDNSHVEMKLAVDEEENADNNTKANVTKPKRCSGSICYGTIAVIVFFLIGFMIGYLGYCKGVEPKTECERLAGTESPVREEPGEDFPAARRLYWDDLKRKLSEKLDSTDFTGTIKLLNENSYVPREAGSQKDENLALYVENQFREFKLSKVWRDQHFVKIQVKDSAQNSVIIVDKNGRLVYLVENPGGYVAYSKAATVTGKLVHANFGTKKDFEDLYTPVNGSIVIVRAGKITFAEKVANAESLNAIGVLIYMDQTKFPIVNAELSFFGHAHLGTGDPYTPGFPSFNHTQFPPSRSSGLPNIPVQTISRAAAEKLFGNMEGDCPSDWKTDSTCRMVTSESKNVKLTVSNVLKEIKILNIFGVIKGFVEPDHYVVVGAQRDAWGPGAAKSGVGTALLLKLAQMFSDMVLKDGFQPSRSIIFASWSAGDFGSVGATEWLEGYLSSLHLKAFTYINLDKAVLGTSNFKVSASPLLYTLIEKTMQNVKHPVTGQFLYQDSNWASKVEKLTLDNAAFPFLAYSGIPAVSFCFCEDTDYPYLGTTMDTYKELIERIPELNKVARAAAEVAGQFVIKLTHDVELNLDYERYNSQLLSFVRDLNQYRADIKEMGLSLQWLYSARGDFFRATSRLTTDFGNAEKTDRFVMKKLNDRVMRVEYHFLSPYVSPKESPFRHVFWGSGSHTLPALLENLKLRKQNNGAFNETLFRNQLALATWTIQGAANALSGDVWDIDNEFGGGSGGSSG
# T2 sequence (P02786 89-760 limits assumed, form in doubt): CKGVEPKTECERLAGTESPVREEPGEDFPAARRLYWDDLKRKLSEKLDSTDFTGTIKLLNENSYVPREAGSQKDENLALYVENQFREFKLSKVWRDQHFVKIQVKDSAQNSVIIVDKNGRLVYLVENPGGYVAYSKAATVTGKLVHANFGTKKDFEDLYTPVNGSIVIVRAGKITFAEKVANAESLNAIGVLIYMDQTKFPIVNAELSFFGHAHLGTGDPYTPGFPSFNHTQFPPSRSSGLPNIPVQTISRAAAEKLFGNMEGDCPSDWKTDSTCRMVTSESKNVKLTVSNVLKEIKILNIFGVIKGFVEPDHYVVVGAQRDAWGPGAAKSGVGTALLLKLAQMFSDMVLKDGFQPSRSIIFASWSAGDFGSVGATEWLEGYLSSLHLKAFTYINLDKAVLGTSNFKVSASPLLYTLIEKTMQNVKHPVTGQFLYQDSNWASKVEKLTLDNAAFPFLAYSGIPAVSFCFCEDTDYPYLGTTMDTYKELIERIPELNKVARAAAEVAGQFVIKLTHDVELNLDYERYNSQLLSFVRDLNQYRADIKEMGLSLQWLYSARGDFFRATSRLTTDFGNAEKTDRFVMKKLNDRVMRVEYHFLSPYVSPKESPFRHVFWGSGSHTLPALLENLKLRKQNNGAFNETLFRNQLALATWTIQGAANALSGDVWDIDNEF
Binder,Ki [2] [nM],Ki [3] [nM],Ki [4] [nM],other results
"CSPDAHLGCISYCEPWX (not fully specified; as printed CSPDAHLGCISYCEPW[K(N3)]: N-terminal acetyl; C-terminal amide; three Cys bound to TATB scaffold; [K(N3)] 6-azido lysine at 17 joined via BCN linker to oligonucleotide 1614438 of the duplex 486178:1614438, nucleic acids; also called Compound No. 486178:1614438 conjugated to BCY17873) [486178:1614438-BCY17873]",–,–,–,Ki [1]: 95 nM
"CSPDAHLGCISYCEXWX (not fully specified; as printed CSPDAHLGCISYCE[Aze]W[K(N3)]: N-terminal acetyl; C-terminal amide; three Cys bound to TATB scaffold; [Aze] azetidine at 15; [K(N3)] 6-azido lysine at 17 joined via BCN linker to oligonucleotide 1590463, also called Compound No. 1590463 conjugated to BCY17892) [1590463-BCY17892]",11,1,11,–
"NWNCPXDAYLGCXSYCX (not fully specified; as printed NWNCP[HyP]DAYLGC[tBuGly]SYC[K(N3)]: N-terminal acetyl; C-terminal amide; three Cys bound to TATB scaffold; [HyP] 4-trans-hydroxy-L-proline at 6; [tBuGly] t-butyl glycine at 13; [K(N3)] 6-azido lysine at 17 joined via BCN linker to oligonucleotide 1590463, also called Compound No. 1590463 conjugated to BCY17899) [1590463-BCY17899]",4,1,4,–
"{oligonucleotide 1590463-BCN linker-azidopropyl}-CS[Hyp]DAHLGCISYC-NH2 (linker 1-9-13 via TATB; reading uncertain; also: printed as CS[HyP]DAHLGCISYC, also called Compound No. 1590463 conjugated to BCY17878) [1590463-BCY17878]",–,–,–,Ki [5]: 74 nM; Kd (CD71): 126 nM
"{oligonucleotide 1590463-BCN linker-azidopropyl″}-CSPDAHLGCISYC-NH2 (linker 1-9-13 via TATB; reading uncertain, also called Compound No. 1590463 conjugated to BCY17869) [1590463-BCY17869]",–,–,–,Ki [5]: 55 nM; Kd (CD71): 14.5 nM
"CSPDAHLGCISYCEPWX (not fully specified; as printed CSPDAHLGCISYCEPW[K(N3)]: N-terminal acetyl; C-terminal amide; three Cys bound to TATB scaffold; [K(N3)] 6-azido lysine at 17 joined via BCN linker to sense strand 1550983 of the RNAi duplex 1453015:1550983, nucleic acids; also called RNAi compound 1453015:1550983 conjugated to BCY17873) [1453015:1550983-BCY17873]",–,–,–,Ki [6]: 9 nM; Ki [7]: 38 nM
"Ac-CSPDAHLGCISYCEPW (linker 1-9-13 via TATB; not fully specified (C-terminus); printed as CSPDAHLGCISYCEPW[PEG10][K(N3)]; also: azide of C-terminal K(N3) clicked via BCN linker to oligonucleotide 1590463, also called Compound No. 1590463 conjugated to BCY19405) [1590463-BCY19405]",–,–,–,Ki [8]: 3 nM
"CPXDAYLGCXSYCEPWX (not fully specified; as printed CP[HyP]DAYLGC[tBuGly]SYCEPW[K(N3)]: N-terminal acetyl; C-terminal amide; three Cys bound to TATB scaffold; [HyP] 4-trans-hydroxy-L-proline at 3; [tBuGly] t-butyl glycine at 10; [K(N3)] 6-azido lysine at 17 joined via BCN linker to oligonucleotide 1590463, also called Compound 1590463-BCY17901; Compound No. 1666846) [1590463-BCY17901]",1,0.3,1,–
"NWNCSPDAHLGCISYCX (as printed NWNCSPDAHLGCISYC[K(N3)]: N-terminal acetyl; C-terminal amide; three Cys bound to TATB scaffold; [K(N3)] 6-azido lysine at 17 joined by SPAAC to BCN on oligonucleotide 1598988, also called tracer compound) [BCY17871-1598988]",–,–,–,Kd [9]: 57 to 58 nM
CPXDAYLGCXSYCX (as printed CP[HyP]DAYLGC[tBuGly]SYC[K(N3)]: N-terminal acetyl; C-terminal amide; three Cys bound to TATB scaffold; [HyP] 4-trans-hydroxy-L-proline at 3; [tBuGly] t-butyl glycine at 10; [K(N3)] 6-azido lysine at 14 joined via BCN linker to oligonucleotide 1598988) [1598988-BCY17896],–,–,–,Ki [10]: 9.9 nM
"NXNCSPDAHLGCISYCX (not fully specified; as printed N[dY]NCSPDAHLGCISYC[K(N3)]: N-terminal acetyl; C-terminal amide; three Cys bound to TATB scaffold; [dY] D-tyrosine at 2; [K(N3)] 6-azido lysine at 17 joined via BCN linker to oligonucleotide 1590463, also called Compound No. 1590463 conjugated to BCY17882) [1590463-BCY17882]",23,3,55,–
"Ac-C[Lys(N3)]PDAHLGCISYC-NH2 (linker 1-9-13 via TATB; not fully specified (residue 2); printed as C[K(N3)]PDAHLGCISYC; also: azide of K(N3) in loop clicked via BCN linker to oligonucleotide 1590463, also called Compound No. 1590463 conjugated to BCY17903) [1590463-BCY17903]",125,24,–,–
"CSPDAHLGCISYCEXWX (not fully specified; as printed CSPDAHLGCISYCE[dP]W[K(N3)]: N-terminal acetyl; C-terminal amide; three Cys bound to TATB scaffold; [dP] D-proline at 15; [K(N3)] 6-azido lysine at 17 joined via BCN linker to oligonucleotide 1590463, also called Compound No. 1590463 conjugated to BCY17890) [1590463-BCY17890]",17,2,20,–
"CPXDAYLGCXSYCX (as printed CP[HyP]DAYLGC[tBuGly]SYC[K(N3)]: N-terminal acetyl; C-terminal amide; three Cys bound to TATB scaffold; [HyP] 4-trans-hydroxy-L-proline at 3; [tBuGly] t-butyl glycine at 10; [K(N3)] 6-azido lysine at 14 joined via BCN linker to oligonucleotide 1591118, also called Compound No. 1591118 conjugated to BCY17896) [1591118-BCY17896]",–,–,–,Ki [10]: 3.1 nM
"CSPDAHLGCISYCEXWX (not fully specified; as printed CSPDAHLGCISYCE[Pip]W[K(N3)]: N-terminal acetyl; C-terminal amide; three Cys bound to TATB scaffold; [Pip] pipecolic acid at 15; [K(N3)] 6-azido lysine at 17 joined via BCN linker to oligonucleotide 1590463, also called Compound No. 1590463 conjugated to BCY17894) [1590463-BCY17894]",8,1,10,–

# The next lines start with results.
Ki [2] [nM],Ki [3] [nM],Ki [4] [nM],Binder,other results
–,2,23,"CSPDAHLGCISYCX (not fully specified; as printed CSPDAHLGCISYC[K(N3)(PYA-Maleimide)]: N-terminal acetyl; C-terminal amide; three Cys bound to TATB scaffold; modified lysine [K(N3)(PYA-Maleimide)] at 14 joined to oligonucleotide 1614439 (5' 6-mercaptohexanol linker), the coupling chemistry of this pair is not spelled out; also called Compound No. 1614439 conjugated to BCY17906) [1614439-BCY17906]",–
–,1,10,"CSPDAHLGCISYCEPWX (not fully specified; as printed CSPDAHLGCISYCEPW[K(N3)]: N-terminal acetyl; C-terminal amide; three Cys bound to TATB scaffold; [K(N3)] 6-azido lysine at 17 joined via BCN linker to oligonucleotide 1609732, also called Compound No. 1609732 conjugated to BCY17873) [1609732-BCY17873]",–

# From patent US20240382605A1 (IONIS PHARMACEUTICALS, published 2024)
